Experiments:
HER2 [1] = target: T1, HER2 (human, UniProt P04626); assay: BLI, 30C, ExpiCHO-expressed
HER2 [2] = target: T1, HER2; assay: BLI, 30C, E. coli-expressed

B1: LH_S-C (antibody)
chain 1: EVQLVESGGGLVQPGGSLRLSVAASGFNIKDTYIHWVRQAPGKGLEWVARIYPTNGYTRYADSVKGRFTISADTSKNTAYLQMNSLRAEDTAVYYASRWGGDGFYCMDYWGQGTLVTVSS
chain 2: not shown
Kd (HER2 [1]): 280 pM
Kd (HER2 [2]): 1500 pM
